Changes are numbered by the printed parent chain.
T1: huIL-18Rβ-HisAvi (human, UniProt O95256 20-356, biotinylated in the Octet blocking assay)
T1 construct: Soluble analyte in all SPR runs; captured on streptavidin sensors in the Octet assay; also called human IL-18Rβ; human IL-18Rβ-Avi-His
T1 sequence: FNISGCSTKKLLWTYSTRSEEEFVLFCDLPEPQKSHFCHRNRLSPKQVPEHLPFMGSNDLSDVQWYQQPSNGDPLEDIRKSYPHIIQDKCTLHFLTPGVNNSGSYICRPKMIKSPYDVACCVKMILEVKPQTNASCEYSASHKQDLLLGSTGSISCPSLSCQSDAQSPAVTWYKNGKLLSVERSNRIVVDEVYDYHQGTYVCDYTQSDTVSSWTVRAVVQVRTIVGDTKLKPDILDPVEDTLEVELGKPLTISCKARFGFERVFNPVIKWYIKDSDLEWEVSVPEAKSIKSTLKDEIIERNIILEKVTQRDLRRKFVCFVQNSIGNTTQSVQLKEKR

T2: cyIL-18Rβ-HisAvi (cynomolgus monkey)
T2 construct: Soluble analyte in SPR; also called cyno IL-18Rβ; cynomolgus monkey IL-18Rβ
T2 chain: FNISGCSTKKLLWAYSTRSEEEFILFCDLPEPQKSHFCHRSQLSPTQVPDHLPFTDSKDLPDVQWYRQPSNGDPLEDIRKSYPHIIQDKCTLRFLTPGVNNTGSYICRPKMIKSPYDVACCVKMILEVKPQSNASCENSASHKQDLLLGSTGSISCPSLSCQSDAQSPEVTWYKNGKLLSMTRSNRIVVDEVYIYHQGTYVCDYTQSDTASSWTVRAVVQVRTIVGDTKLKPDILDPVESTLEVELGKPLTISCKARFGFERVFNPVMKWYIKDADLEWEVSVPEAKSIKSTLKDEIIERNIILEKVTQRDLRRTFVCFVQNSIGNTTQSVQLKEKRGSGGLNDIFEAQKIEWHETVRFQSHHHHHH

T3: human IL-18Rβ on cells (human, UniProt O95256 20-599)
T3 sequence: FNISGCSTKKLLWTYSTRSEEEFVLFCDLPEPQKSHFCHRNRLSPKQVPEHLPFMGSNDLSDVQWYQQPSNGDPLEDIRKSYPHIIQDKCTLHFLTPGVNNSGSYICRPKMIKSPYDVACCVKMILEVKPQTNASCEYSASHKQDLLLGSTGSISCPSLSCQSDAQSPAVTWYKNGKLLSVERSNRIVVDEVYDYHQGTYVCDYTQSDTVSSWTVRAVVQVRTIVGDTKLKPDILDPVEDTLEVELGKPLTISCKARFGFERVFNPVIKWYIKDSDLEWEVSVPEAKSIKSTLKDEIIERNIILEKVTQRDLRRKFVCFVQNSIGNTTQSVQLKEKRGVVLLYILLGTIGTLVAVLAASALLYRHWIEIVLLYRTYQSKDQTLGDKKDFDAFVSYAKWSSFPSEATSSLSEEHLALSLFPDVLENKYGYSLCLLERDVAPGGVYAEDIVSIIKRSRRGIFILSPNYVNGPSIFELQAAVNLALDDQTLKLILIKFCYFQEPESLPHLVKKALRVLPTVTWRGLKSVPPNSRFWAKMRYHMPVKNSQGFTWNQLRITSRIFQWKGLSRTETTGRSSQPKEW

B1: P21-V2 (antibody, human IgG1, kappa, name in Kabat numbering)
heavy: QVQLQQSGPGLVKPSETLSLTCTVSGGSISNYYWTWIRQPPGKGLEWIGYISDSGSTNYNPSLKSRVTISVDTSKNQFSLKLSSVTAADTAVYYCARETIVVRGFYFYVMDVWGQGTTVTVSSASTKGPSVFPLAPSSKSTSGGTAALGCLVKDYFPEPVTVSWNSGALTSGVHTFPAVLQSSGLYSLSSVVTVPSSSLGTQTYICNVNHKPSNTKVDKRVEPKSCDKTHTCPPCPAPEAEGAPSVFLFPPKPKDTLMISRTPEVTCVVVDVSHEDPEVKFNWYVDGVEVHNAKTKPREEQYNSTYRVVSVLTVLHQDWLNGKEYKCKVSNKALPAPIEKTISKAKGQPREPQVYTLPPSREEMTKNQVSLTCLVKGFYPSDIAVEWESNGQPENNYKTTPPVLDSDGSFFLYSKLTVDKSRWQQGNVFSCSVMHEALHNHYTQKSLSLSPG
light: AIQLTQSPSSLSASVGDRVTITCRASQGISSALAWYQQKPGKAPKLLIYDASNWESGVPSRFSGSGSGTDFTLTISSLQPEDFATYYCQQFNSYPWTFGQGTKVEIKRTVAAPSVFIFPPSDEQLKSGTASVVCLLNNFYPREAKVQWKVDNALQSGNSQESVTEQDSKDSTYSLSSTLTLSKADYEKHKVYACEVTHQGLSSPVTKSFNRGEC
notes: built from the chains of the parent P21 with the printed mutation
B2: P21-V3 (antibody, human IgG1, kappa, name in Kabat numbering)
heavy: B1 heavy with Q6E
light: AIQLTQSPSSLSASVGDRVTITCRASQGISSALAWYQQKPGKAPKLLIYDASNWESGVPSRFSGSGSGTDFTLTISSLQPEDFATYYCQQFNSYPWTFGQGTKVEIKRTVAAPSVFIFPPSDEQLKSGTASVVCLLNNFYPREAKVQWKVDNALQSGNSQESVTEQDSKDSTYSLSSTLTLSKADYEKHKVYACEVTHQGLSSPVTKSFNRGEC
notes: built from the chains of the parent P21 with the printed mutations
B3: P8-V2 (antibody, human IgG1, kappa, name in Kabat numbering)
heavy: QVQLVQSGAEVKKPGASVKVSCKASGYTFTSYYMHWVRQAPGQGLEWMGIINPRGGYTTYAQKFQGRVTMTRDTSTSTVYMELSSLRSEDTAVYYCAKEGRVSPTDYYGMDVWGQGTTVTVSSASTKGPSVFPLAPSSKSTSGGTAALGCLVKDYFPEPVTVSWNSGALTSGVHTFPAVLQSSGLYSLSSVVTVPSSSLGTQTYICNVNHKPSNTKVDKRVEPKSCDKTHTCPPCPAPEAEGAPSVFLFPPKPKDTLMISRTPEVTCVVVDVSHEDPEVKFNWYVDGVEVHNAKTKPREEQYNSTYRVVSVLTVLHQDWLNGKEYKCKVSNKALPAPIEKTISKAKGQPREPQVYTLPPSREEMTKNQVSLTCLVKGFYPSDIAVEWESNGQPENNYKTTPPVLDSDGSFFLYSKLTVDKSRWQQGNVFSCSVMHEALHNHYTQKSLSLSPG
light: not shown
notes: built from the chains of the parent P8 with the printed mutations
B4: P8-V1 (antibody, human IgG1, kappa, V domains shown)
VH: QVQLVQSGAEVKKPGASVKVSCKASGYTFTSYYMHWVRQAPGQGLEWMGIINPRGGYTTYAQKFQGRVTMTRDTSTSTVYMELSSLRSEDTAVYYCAKEGRVSPTDYYGMDVWGQGTTVTVSS
VL: not shown
notes: Variant of P8

Tests used:
huIL-18Rβ-HisAvi [1] = molecular target: T1, huIL-18Rβ-HisAvi; assay: SPR T200, mAb on anti-hFc, 37C, pH 6
cyIL-18Rβ-HisAvi [2] = molecular target: T2, cyIL-18Rβ-HisAvi; assay: SPR T200, mAb on anti-hFc, 37C, pH 6
huIL-18Rβ-HisAvi [3] = molecular target: T1, huIL-18Rβ-HisAvi; assay: SPR T200, mAb on anti-hFc, 37C, pH 7.4
cyIL-18Rβ-HisAvi [4] = molecular target: T2, cyIL-18Rβ-HisAvi; assay: SPR T200, mAb on anti-hFc, 37C, pH 7.4
human IL-18Rβ on cells = molecular target: T3, human IL-18Rβ on cells; assay: cell-based or functional assay
huIL-18Rβ-HisAvi [5] = molecular target: T1, huIL-18Rβ-HisAvi; assay: SPR T200, mAb on anti-hFc, 37C, pH 6; remark: listed apart in the source
cyIL-18Rβ-HisAvi [6] = molecular target: T2, cyIL-18Rβ-HisAvi; assay: SPR T200, mAb on anti-hFc, 37C, pH 6
huIL-18Rβ-HisAvi [7] = molecular target: T1, huIL-18Rβ-HisAvi; assay: SPR T200, mAb on anti-hFc, 37C, pH 7.4; remark: listed apart in the source
cyIL-18Rβ-HisAvi [8] = molecular target: T2, cyIL-18Rβ-HisAvi; assay: SPR T200, mAb on anti-hFc, 37C, pH 7.4

Binder | Kd (huIL-18Rβ-HisAvi [1]) [nM] | koff (huIL-18Rβ-HisAvi [1]) [s⁻¹] | kon (huIL-18Rβ-HisAvi [1]) [M⁻¹ s⁻¹] | Kd (cyIL-18Rβ-HisAvi [2]) [nM] | koff (cyIL-18Rβ-HisAvi [2]) [s⁻¹] | kon (cyIL-18Rβ-HisAvi [2]) [M⁻¹ s⁻¹] | Kd (huIL-18Rβ-HisAvi [3]) [nM] | koff (huIL-18Rβ-HisAvi [3]) [s⁻¹] | kon (huIL-18Rβ-HisAvi [3]) [M⁻¹ s⁻¹] | Kd (cyIL-18Rβ-HisAvi [4]) [nM] | koff (cyIL-18Rβ-HisAvi [4]) [s⁻¹] | kon (cyIL-18Rβ-HisAvi [4]) [M⁻¹ s⁻¹] | IC50, LPS+IL-12 dependent IFNg production, human whole blood (human IL-18Rβ on cells) [nM] | further results
B1 | 0.7 | 0.00043 | 610000 | 14 | 0.0022 | 160000 | 2.3 | 0.00053 | 230000 | 22 | 0.0032 | 150000 | 1.65 | –
B2 | 0.66 | 0.00039 | 590000 | 8.4 | 0.0016 | 190000 | 2.3 | 0.00054 | 240000 | 17 | 0.0027 | 160000 | 1.63 | Kd (huIL-18Rβ-HisAvi [5]): 0.66 nM; koff (huIL-18Rβ-HisAvi [5]): 0.00039 s⁻¹; kon (huIL-18Rβ-HisAvi [5]): 590000 M⁻¹ s⁻¹; Kd (cyIL-18Rβ-HisAvi [6]): 8.4 nM; koff (cyIL-18Rβ-HisAvi [6]): 0.0016 s⁻¹; kon (cyIL-18Rβ-HisAvi [6]): 190000 M⁻¹ s⁻¹; Kd (huIL-18Rβ-HisAvi [7]): 2.3 nM; koff (huIL-18Rβ-HisAvi [7]): 0.00054 s⁻¹; kon (huIL-18Rβ-HisAvi [7]): 240000 M⁻¹ s⁻¹; Kd (cyIL-18Rβ-HisAvi [8]): 17 nM; koff (cyIL-18Rβ-HisAvi [8]): 0.0027 s⁻¹; kon (cyIL-18Rβ-HisAvi [8]): 160000 M⁻¹ s⁻¹
B3 | 0.18 | 0.00028 | 1.6e+06 | – | – | – | 0.73 | 0.00049 | 680000 | – | – | – | 0.87 | –
B4 | 0.22 | 0.00028 | 1.3e+06 | – | – | – | 0.8 | 0.00047 | 580000 | – | – | – | 1.09 | –

From patent US20250230251A1 (Bristol-Myers Squibb, published 2025)
